In patent publication US20200131274A1 (CRESCENDO BIOLOGICS, published 2020):
Read-outs that look alike come from different tables or passages of the source.

How the values were obtained:
[1] = biological target: T1, human prostate specific membrane antigen (PSMA), full-length, on cells (human, UniProt Q04609 1-750); assay: FMAT direct cell binding, DU145 PSMA cells
T1 construct: also called huPSMA; human PSMA

[2] = biological target: T1, human prostate specific membrane …; assay: FMAT cell binding, huPSMA CHO 1A10 cells, after 7 days in human serum at 37 C
[3] = biological target: T1, human prostate specific membrane …; assay: FMAT cell binding, huPSMA CHO 1A10 cells, after 4 days in human serum at 37 C
[4] = biological target: T1, human prostate specific membrane …; assay: FMAT cell binding, huPSMA CHO 1A10 cells, after 1 day in human serum at 37 C
[5] = biological target: T1, human prostate specific membrane …; assay: cell-based or functional assay
[6] = biological target: T2, cynomolgus PSMA, full-length, on CHO cells (cynomolgus, UniProt A0A2K5VNZ0 1-750); assay: cell-based or functional assay
[7] = biological target: T1, human prostate specific membrane …; assay: FMAT direct cell binding, LNCap cells
[8] = biological target: T3, recombinant human PSMA (R&D, cat. no. 4234-ZN) (human, UniProt Q04609 44-750); assay: Octet RED384 BLI, PSMA on sensor, VH series from 0.375 ug/ml
T3 construct: Bought protein; also called rhPSMA; Recombinant PMSA
T3 sequence (Q04609 44-750 limits assumed): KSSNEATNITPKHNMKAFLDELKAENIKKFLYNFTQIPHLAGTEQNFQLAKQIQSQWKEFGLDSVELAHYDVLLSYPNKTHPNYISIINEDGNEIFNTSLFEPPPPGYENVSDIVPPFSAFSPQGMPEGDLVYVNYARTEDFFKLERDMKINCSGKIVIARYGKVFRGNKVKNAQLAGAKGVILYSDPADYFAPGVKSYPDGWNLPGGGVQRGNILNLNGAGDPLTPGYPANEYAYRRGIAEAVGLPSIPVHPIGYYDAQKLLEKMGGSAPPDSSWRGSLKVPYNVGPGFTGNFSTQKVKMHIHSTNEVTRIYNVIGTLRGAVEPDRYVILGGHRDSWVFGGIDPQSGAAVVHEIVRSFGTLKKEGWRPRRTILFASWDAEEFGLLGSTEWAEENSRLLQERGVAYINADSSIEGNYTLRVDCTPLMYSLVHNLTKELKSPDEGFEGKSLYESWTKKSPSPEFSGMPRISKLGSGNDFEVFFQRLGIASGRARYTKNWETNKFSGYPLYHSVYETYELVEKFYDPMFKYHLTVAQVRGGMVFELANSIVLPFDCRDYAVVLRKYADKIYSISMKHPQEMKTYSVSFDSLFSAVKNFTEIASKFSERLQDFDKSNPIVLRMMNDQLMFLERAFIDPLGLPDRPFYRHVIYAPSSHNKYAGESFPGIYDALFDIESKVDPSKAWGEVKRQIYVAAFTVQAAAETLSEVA

[9] = biological target: T1, human prostate specific membrane …; assay: cell-based or functional assay; remark: listed apart in the source
[10] = biological target: T2, cynomolgus PSMA, full-length, on CHO …; assay: FMAT direct cell binding, CHO cyno PSMA cells
[11] = biological target: T1, human prostate specific membrane …; assay: FMAT cell binding, huPSMA CHO 1A10 cells, after 0 days in human serum at 37 C
[12] = biological target: T1, human prostate specific membrane …; assay: FMAT direct cell binding, CHO human PSMA cells
[13] = biological target: T2, cynomolgus PSMA, full-length, on CHO …; assay: FMAT Mirrorball direct cell binding, purified His-tagged VH titrated on CHO cells expressing cynomolgus PSMA, FL2 median binding signal [panel cynoPSMA-CHO binding]
[14] = biological target: T3, recombinant human PSMA (R&D, cat. no. …); assay: Octet RED384 BLI, PSMA on sensor, VH series from 0.375 ug/ml; remark: listed apart in the source
[15] = biological target: T1, human prostate specific membrane …; assay: FMAT cell binding, huPSMA CHO 1A10 cells, after 0 days in human serum at 37 C; remark: listed apart in the source
[16] = biological target: T1, human prostate specific membrane …; assay: FMAT cell binding, huPSMA CHO 1A10 cells, after 7 days in human serum at 37 C; remark: listed apart in the source
[17] = biological target: T1, human prostate specific membrane …; assay: FMAT cell binding, huPSMA CHO 1A10 cells, after 1 day in human serum at 37 C; remark: listed apart in the source
[18] = biological target: T1, human prostate specific membrane …; assay: FMAT cell binding, huPSMA CHO 1A10 cells, after 4 days in human serum at 37 C; remark: listed apart in the source
[19] = biological target: T1, human prostate specific membrane …; assay: FMAT cell binding, huPSMA CHO cells, after 7 days in human serum at 37 C
[20] = biological target: T1, human prostate specific membrane …; assay: FMAT cell binding, huPSMA CHO cells, after 0 days in human serum at 37 C
[21] = biological target: T1, human prostate specific membrane …; assay: FMAT direct cell binding, human PSMA-CHO cells
[22] = biological target: T1, human prostate specific membrane …; assay: FMAT cell binding, huPSMA CHO cells, after 1 day in human serum at 37 C
[23] = biological target: T1, human prostate specific membrane …; assay: FMAT cell binding, huPSMA CHO cells, after 4 days in human serum at 37 C

T1 sequence (Q04609 whole entry): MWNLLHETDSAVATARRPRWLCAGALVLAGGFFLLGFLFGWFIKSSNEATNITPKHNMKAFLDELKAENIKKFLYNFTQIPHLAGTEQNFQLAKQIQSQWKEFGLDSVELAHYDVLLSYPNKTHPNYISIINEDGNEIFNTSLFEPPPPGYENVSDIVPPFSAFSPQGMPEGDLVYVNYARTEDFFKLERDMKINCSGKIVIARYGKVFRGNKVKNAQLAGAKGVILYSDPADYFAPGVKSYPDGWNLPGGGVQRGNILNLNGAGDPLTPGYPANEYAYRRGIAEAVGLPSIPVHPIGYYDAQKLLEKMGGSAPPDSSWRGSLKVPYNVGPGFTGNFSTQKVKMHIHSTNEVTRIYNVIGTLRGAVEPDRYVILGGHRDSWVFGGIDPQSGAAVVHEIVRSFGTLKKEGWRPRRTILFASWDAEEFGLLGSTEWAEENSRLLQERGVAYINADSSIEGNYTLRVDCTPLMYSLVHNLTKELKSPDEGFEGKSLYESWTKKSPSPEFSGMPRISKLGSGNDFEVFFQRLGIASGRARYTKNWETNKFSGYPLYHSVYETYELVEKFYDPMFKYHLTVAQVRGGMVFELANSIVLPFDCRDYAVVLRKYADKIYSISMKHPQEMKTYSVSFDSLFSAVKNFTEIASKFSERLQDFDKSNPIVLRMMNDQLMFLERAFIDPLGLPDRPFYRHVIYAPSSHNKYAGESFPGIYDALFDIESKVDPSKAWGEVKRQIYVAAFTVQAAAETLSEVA

B1: single VH domain antibody 1.11 (VHH)
VHH: EVQLLESGGGLVQPGGSLRLSCAASGFSFSSYALSWVRQAPGKGLEWVSSIGENNDTTDYADNVKGRFTISRDNSKNTLYLQMNSLRVEDTAVYYCVKDGVHWGQGTLVTVSS
notes: Human single VH domain antibody (Humabody)
EC50 [1]: 76 pM
EC50 [2]: 278 pM
EC50 [3]: 227 pM
EC50 [4]: 208 pM
His-ZAP cell killing, human PSMA Average EC50 [5]: 14 pM
His-ZAP cell killing, cyno PSMA EC50 [6]: 410 pM
EC50 [7]: 119 pM
Kd [8]: 800 pM
koff [8]: 0.000495 s⁻¹
pHrodo Green internalization assay, human PSMA Average EC50 (M) [9]: 3.7e-10 M
EC50 [10]: 217 pM
EC50 [11]: 234 pM
EC50 [12]: 86.3 pM

B2: single VH domain antibody 1.16 (VHH)
VHH: EVQLLESGGGLVQPGGSLRLSCAASGFSFSSYALSWVRQAPGKGLEWVSSIGENNHTTDYADTVKGRFTISRDNSKNTLYLQMNSLRVEDTAVYYCVKDGVHWGQGTLVTVSS
notes: as for B1
EC50 [1]: 59.4 pM
EC50 [2]: 236 pM
EC50 [3]: 242 pM
EC50 [4]: 243 pM
His-ZAP cell killing, human PSMA Average EC50 [5]: 17 pM
His-ZAP cell killing, cyno PSMA EC50 [6]: 420 pM
EC50 [7]: 75.4 pM
Kd [8]: 440 pM
koff [8]: 0.000365 s⁻¹
pHrodo Green internalization assay, human PSMA Average EC50 (M) [9]: 4.8e-10 M
EC50 [10]: 146 pM
EC50 [11]: 165 pM
EC50 [12]: 68 pM

B3: single VH domain antibody 1.18 (VHH)
VHH: EVQLLESGGGLVQPGGSLRLSCAASGFSFSSYALSWVRQAPGKGLEWVSSIGENNATTDYAASVKGRFTISRDNSKNTLYLQMNSLRVEDTAVYYCVKDGVHWGQGTLVTVSS
notes: as for B1
EC50 [1]: 49.5 pM
EC50 [2]: 313 pM
EC50 [3]: 319 pM
EC50 [4]: 311 pM
His-ZAP cell killing, human PSMA Average EC50 [5]: 23 pM
His-ZAP cell killing, cyno PSMA EC50 [6]: 480 pM
EC50 [7]: 42.4 pM
Kd [8]: 590 pM
koff [8]: 0.000572 s⁻¹
pHrodo Green internalization assay, human PSMA Average EC50 (M) [9]: 3.1e-10 M
EC50 [10]: 124 pM
EC50 [11]: 304 pM
EC50 [12]: 58.6 pM

B4: 2.10 (VHH)
VHH: EVQLVESGGGVVQPGRSLRLSCAASGFTFSGYGMHWVRQAPGKGLEWVAYISYDGSNRYYADSVKGRFTISRDNSKKTLSLQMNSLRAEDTAVYYCAKDPAWGLRLGESSSYDFDIWGQGTMVTVSS
notes: On the sheet it is the filled up triangle; also called single VH domain antibody 2.10
EC50 (read off the curve) [13]: ~1000 pM

B5: single VH domain antibody 2.17 (VHH)
VHH: EVQLVESGGGVVQPGRSLRLSCAASGFSFSGYGMHWVRQAPGKGLEWVAYISYDASNKYYADNVKGRFTISRDNSKNTLYLQMNSLRAEDTAVYYCAKDPAWGLRLGESSSYDFDIWGQGTMVTVSS
notes: Human single VH domain antibody (Humabody); C-terminal His tag, residues not tied
EC50 [1]: 218 pM
Kd [14]: 760 pM
koff [14]: 0.000726 s⁻¹
EC50 [15]: 230 pM
His-ZAP cell killing, human PSMA Average EC50 [5]: 35 pM
His-ZAP cell killing, cyno PSMA EC50 [6]: 70 pM
EC50 [16]: 238 pM
EC50 [7]: 11.3 pM
EC50 [17]: 210 pM
EC50 [18]: 228 pM
pHrodo Green internalization assay, human PSMA Average EC50 (M) [9]: 8e-10 M
EC50 [10]: 308 pM
EC50 [12]: 100 pM

B6: single VH domain antibody 2.22 (VHH)
VHH: EVQLVESGGGVVQPGRSLRLSCAASGFSFSGYGTHWVRQAPGKGLEWVAYISYDGSNKYYAAPVKGRFTISRDNSKNTLYLQMNSLRAEDTAVYYCAKDAAWGLRLGESSSYDFDIWGQGTMVTVSS
notes: as for B5
EC50 [1]: 229 pM
Kd [14]: 2620 pM
koff [14]: 0.00244 s⁻¹
EC50 [15]: 305 pM
His-ZAP cell killing, human PSMA Average EC50 [5]: 69 pM
His-ZAP cell killing, cyno PSMA EC50 [6]: 180 pM
EC50 [16]: 328 pM
EC50 [7]: 153 pM
EC50 [17]: 291 pM
EC50 [18]: 340 pM
pHrodo Green internalization assay, human PSMA Average EC50 (M) [9]: 6.7e-10 M
EC50 [10]: 613 pM
EC50 [12]: 123 pM

B7: 1.11-6GS-2.1 (bispecific antibody)
chain: EVQLLESGGGLVQPGGSLRLSCAASGFSFSSYALSWVRQAPGKGLEWVSSIGENNDTTDYADNVKGRFTISRDNSKNTLYLQMNSLRVEDTAVYYCVKDGVHWGQGTLVTVSSGGGGSGGGGSGGGGSGGGGSGGGGSGGGGSEVQLVESGGGVVQPGRSLRLSCAASGFSFSGYGMHWVRQAPGKGLEWVAYISYDGSNKYYADSVKGRFTISRDNSKNTLYLQMNSLRAEDTAVYYCAKDPAWGLRLGESSSYDFDIWGQGTMVTVSS
notes: linker (G4S)6; also called 1.11-2.1
EC50 [19]: 86.5 pM
His-ZAP cell killing, human PSMA Average EC50 [5]: 17 pM
His-ZAP cell killing, cyno PSMA Average EC50 [6]: 12 pM
EC50 [20]: 89.2 pM
EC50 [21]: 287 pM
EC50 [22]: 60.5 pM
EC50 [23]: 73.6 pM

B8: 1.11-6GS-2.17 (bispecific antibody)
chain: EVQLLESGGGLVQPGGSLRLSCAASGFSFSSYALSWVRQAPGKGLEWVSSIGENNDTTDYADNVKGRFTISRDNSKNTLYLQMNSLRVEDTAVYYCVKDGVHWGQGTLVTVSSGGGGSGGGGSGGGGSGGGGSGGGGSGGGGSEVQLVESGGGVVQPGRSLRLSCAASGFSFSGYGMHWVRQAPGKGLEWVAYISYDASNKYYADNVKGRFTISRDNSKNTLYLQMNSLRAEDTAVYYCAKDPAWGLRLGESSSYDFDIWGQGTMVTVSS
notes: linker (G4S)6
EC50 [19]: 101 pM
His-ZAP cell killing, human PSMA Average EC50 [5]: 7.9 pM
His-ZAP cell killing, cyno PSMA Average EC50 [6]: 8.1 pM
EC50 [20]: 63.9 pM
EC50 [21]: 280 pM
EC50 [22]: 72.5 pM
EC50 [23]: 84.4 pM

B9: 1.16-6GS-2.1 (bispecific antibody)
chain: EVQLLESGGGLVQPGGSLRLSCAASGFSFSSYALSWVRQAPGKGLEWVSSIGENNHTTDYADTVKGRFTISRDNSKNTLYLQMNSLRVEDTAVYYCVKDGVHWGQGTLVTVSSGGGGSGGGGSGGGGSGGGGSGGGGSGGGGSEVQLVESGGGVVQPGRSLRLSCAASGFSFSGYGMHWVRQAPGKGLEWVAYISYDGSNKYYADSVKGRFTISRDNSKNTLYLQMNSLRAEDTAVYYCAKDPAWGLRLGESSSYDFDIWGQGTMVTVSS
notes: linker (G4S)6
EC50 [19]: 107 pM
His-ZAP cell killing, human PSMA Average EC50 [5]: 14 pM
His-ZAP cell killing, cyno PSMA Average EC50 [6]: 13 pM
EC50 [20]: 90.2 pM
EC50 [21]: 306 pM
EC50 [22]: 86 pM
EC50 [23]: 100 pM

B10: 1.16-6GS-2.17 (bispecific antibody)
chain: EVQLLESGGGLVQPGGSLRLSCAASGFSFSSYALSWVRQAPGKGLEWVSSIGENNHTTDYADTVKGRFTISRDNSKNTLYLQMNSLRVEDTAVYYCVKDGVHWGQGTLVTVSSGGGGSGGGGSGGGGSGGGGSGGGGSGGGGSEVQLVESGGGVVQPGRSLRLSCAASGFSFSGYGMHWVRQAPGKGLEWVAYISYDASNKYYADNVKGRFTISRDNSKNTLYLQMNSLRAEDTAVYYCAKDPAWGLRLGESSSYDFDIWGQGTMVTVSS
notes: linker (G4S)6
EC50 [19]: 67.5 pM
His-ZAP cell killing, human PSMA Average EC50 [5]: 15 pM
His-ZAP cell killing, cyno PSMA Average EC50 [6]: 11 pM
EC50 [20]: 74.1 pM
EC50 [21]: 333 pM
EC50 [22]: 94.4 pM
EC50 [23]: 62.8 pM
